The values below come from US7208581 (BURNHAM INSTITUTE FOR MEDICAL RESEARCH, dated 2007).

The chains are these.
T1: hTRAF 2 (complete open reading frame, in vitro translated from pcDNA3-HA-TRAF2) (human, UniProt Q12933 2-501, 35S-methionine labelled)
T1 construct: mature; also called human TRAF 2; not shown: HA tag of the pcDNA3-HA vector
T1 sequence (looked up): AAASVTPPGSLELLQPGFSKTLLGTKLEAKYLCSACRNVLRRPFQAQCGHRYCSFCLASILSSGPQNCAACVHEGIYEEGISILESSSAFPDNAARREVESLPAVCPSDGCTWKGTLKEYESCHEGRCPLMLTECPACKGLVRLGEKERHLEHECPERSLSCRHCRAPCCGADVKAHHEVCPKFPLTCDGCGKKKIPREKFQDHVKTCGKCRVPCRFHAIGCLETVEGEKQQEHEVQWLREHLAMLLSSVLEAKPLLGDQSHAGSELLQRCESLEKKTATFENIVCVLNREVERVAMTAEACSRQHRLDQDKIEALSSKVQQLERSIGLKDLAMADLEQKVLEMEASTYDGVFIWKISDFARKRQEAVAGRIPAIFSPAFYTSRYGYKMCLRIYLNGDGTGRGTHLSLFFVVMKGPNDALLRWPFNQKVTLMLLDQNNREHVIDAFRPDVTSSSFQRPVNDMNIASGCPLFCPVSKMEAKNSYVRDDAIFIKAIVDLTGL

T2: hTRAF4 (complete open reading frame, in vitro translated from pcDNA3-HA-TRAF4) (human, UniProt Q9BUZ4 1-470, 35S-methionine labelled)
T2 construct: mature; also called human TRAF 4; not shown: HA tag of the pcDNA3-HA vector
T2 sequence (looked up): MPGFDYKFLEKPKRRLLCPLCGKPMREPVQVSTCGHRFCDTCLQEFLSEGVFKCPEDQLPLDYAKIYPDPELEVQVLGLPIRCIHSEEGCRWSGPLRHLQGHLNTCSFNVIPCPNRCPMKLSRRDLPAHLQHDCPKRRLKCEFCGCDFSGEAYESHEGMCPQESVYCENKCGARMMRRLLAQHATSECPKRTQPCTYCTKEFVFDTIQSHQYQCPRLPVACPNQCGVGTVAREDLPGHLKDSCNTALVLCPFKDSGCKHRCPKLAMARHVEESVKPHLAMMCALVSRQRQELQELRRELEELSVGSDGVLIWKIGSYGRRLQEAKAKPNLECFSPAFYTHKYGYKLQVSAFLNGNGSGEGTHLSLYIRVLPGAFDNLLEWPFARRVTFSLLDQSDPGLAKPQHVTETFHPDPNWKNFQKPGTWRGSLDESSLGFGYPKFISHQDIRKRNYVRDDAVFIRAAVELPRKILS

T3: full-length I-TRAF (in vitro translated) (UniProt Q92844 1-425, limits assumed, 35S-methionine labelled)
T3 construct: mature
T3 sequence (looked up): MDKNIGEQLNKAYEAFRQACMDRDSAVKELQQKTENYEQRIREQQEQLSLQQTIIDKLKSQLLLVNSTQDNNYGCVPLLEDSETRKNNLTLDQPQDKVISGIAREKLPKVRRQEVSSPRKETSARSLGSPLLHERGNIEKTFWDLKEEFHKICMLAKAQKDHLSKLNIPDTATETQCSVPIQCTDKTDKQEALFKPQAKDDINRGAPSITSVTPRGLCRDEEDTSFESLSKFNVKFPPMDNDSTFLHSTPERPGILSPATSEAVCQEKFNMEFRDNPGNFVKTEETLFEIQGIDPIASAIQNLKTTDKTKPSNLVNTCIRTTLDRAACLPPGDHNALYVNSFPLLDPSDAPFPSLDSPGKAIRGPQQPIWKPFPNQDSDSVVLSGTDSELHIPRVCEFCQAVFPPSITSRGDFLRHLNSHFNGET

B1: GST-CD40(ct) (receptor, UniProt P25942 216-277, looked up)
chain: KKVAKKPTNKAPHPKQEPQEINFPDDLPGSNTAAPVQETLHGCQPVTQEDGKESRISVQERQ
notes: domain: cytosolic domain; not shown: glutathione S-transferase tag of plasmid pGEX-CD40(ct)
B2: GST-DR4(ct) (receptor, UniProt O00220 263-468, looked up)
chain: CIGSGCGGDPKCMDRVCFWRLGLLRGPGAEDNAHNEILSNADSLSTFVSEQQMESQEPADLTGVTVQSPGEAQCLLGPAEAEGSQRRRLLVPANGADPTETLMLFFDKFANIVPFDSWDQLMRQLDLTKNEIDVVRAGTAGPGDALYAMLMKWVNKTGRNASIHTLLDALERMEERHAREKIQDLLVDSGKFIYLEDGTGSAVSLE
notes: domain: cytosolic domain; not shown: glutathione S-transferase tag of plasmid pGEX-DR4(ct)
B3: TRAF7 (282-435), not GST-fused (pcDNA3-myc-TRAF7 (282-435)) (other)
chain: FTSELVPSYDSATFVLENFSTLRQRADPVYSPPLQVSGLCWRLKVYPDGNGVVRGYYLSVFLELSAGLPETSKYEYRVEMVHQSCNDPTKNIIREFASDFEVGECWGYNRFFRLDLLANEGYLNPQNDTVILRFQVRSPTFFQKSRDQHWYIT
notes: transfected in the reporter assay; also called in vitro translated TRAF7 (282-435); TRAF domain of TRAF7; not shown: myc tag of the pcDNA3-myc vector
B4: GST-fusion protein containing the cytosolic domain of HVEM (receptor, UniProt Q92956 224-283, looked up)
chain: CVKRRKPRGDVVKVIVSVQRKRQEAEGEATVIEALQAPPDVTTVAVEETIPSFTGRSPNH
notes: domain: cytosolic domain; Only named in the 293T lysate experiment; not shown: glutathione S-transferase tag
B5: GST-LTβR(ct) (receptor, UniProt P36941 249-435, looked up)
chain: KSHPSLCRKLGSLLKRRPQGEGPNPVAGSWEPPKAHPYFPDLVQPLLPISGDVSPVSTGLPAAPVLEAGVPQQQSPLDLTREPQLEPGEQSQVAHGTNGIHVTGGSMTITGNIYIYNGPVLGGPPGPGDLPATPEPPYPIPEEGDPGPPGLSTPHQEDGKAWHLAETEHCGATPSNRGPRNQFITHD
notes: domain: cytosolic domain; also called lymphotoxin-β receptor; not shown: glutathione S-transferase tag of plasmid pGEX-LTβR(ct)
B6: GST-TNF-R2(ct) (receptor, UniProt P20333 288-461, looked up)
chain: KKKPLCLQREAKVPHLPADKARGTQGPEQQHLLITAPSSSSSSLESSASALDRRAPTRNQPQAPGVEASGAGEARASTGSSDSSPGGHGTQVNVTCIVNVCSSSDHSSQCSSQASSTMGDTDSSPSESPKDEQVPFSKEECAFRSQLETPETLLGSTEEKPLPLGVPDAGMKPS
notes: domain: cytosolic domain; Plasmid provided by Dr. C; Ware; also called TNF-receptor 2; not shown: glutathione S-transferase tag of plasmid pGEX-TNF-R2(ct)
B7: GST-Fas(ct) (receptor, UniProt P25445 191-335, looked up)
chain: KRKEVQKTCRKHRKENQGSHESPTLNPETVAINLSDVDLSKYITTIAGVMTLSQVKGFVRKNGVNEAKIDEIKNDNVQDTAEQKVQLLRNWHQLHGKKEAYDTLIKDLKKANLCTLAEKIQTIILKDITSDSENSNFRNEIQSLV
notes: domain: cytosolic domain; not shown: glutathione S-transferase tag of plasmid pGEX-Fas(ct)
B8: GST-SPOP (1-180) (other)
chain: MSRVPSPPPPAEMSSGPVAESWCYTQIKVVKFSYMWTINNFSFCREEMGEVIKSSTFSSGANDKLKWCLRVNPKGLDEESKDYLSLYLLLVSCPKSEVRAKFKFSILNAKGEETKAMESQRAYRFVQGKDWGFKKFIRRDFLLDEANGLLPDDKLTLFCEVSVVQDSVNISGQNTMNMVK
notes: Bacterial GST fusion purified on glutathione-Sepharose. cDNA amplified from Jurkat cells; also called GST-SPOP fusion protein; GST-fused TPBD of SPOP; not shown: glutathione S-transferase tag encoded by the pGEX4T vector (Pharmacia)
B9: SPOP (1-180), not GST-fused (pcDNA3-myc-SPOP (1-180)) (other)
chain: B8 chain
notes: also called in vitro translated SPOP (1-180); TPBD of SPOP; not shown: myc tag of the pcDNA3-myc vector

Experiment [1] addresses T4, GST-HAUSP (1-213) (human, UniProt Q93009 1-213).
T4 construct: Bacterial GST fusion purified on glutathione-Sepharose. cDNA amplified from Jurkat cells; also called GST-fused TPBD of HAUSP; HAUSP TPBD; not shown: glutathione S-transferase tag encoded by the pGEX4T vector (Pharmacia)
Briefly: GST pull-down, 35S in vitro translated protein, SDS-PAGE and fluorography.

The target of experiment [2] is B8. The experiment is described as above.
Experiment [3] addresses B3. Briefly: GST pull-down from 293T cell lysate, anti-Myc immunoblot.
Experimental: Bound TRAF proteins were detected by SDS-PAGE and fluorography.
Equal volumes of the in vitro translation mixtures (10 μl) were incubated with GST-fusion proteins containing the cytosolic domains of different members of the TNF-R family (1 μg)(FAS, TNF-R2, CD40, LTβR, NGFRp75, and DR4) immobilized on glutathione-Sepharose. […] Control GST and other GST control proteins were included in all assays After washing, bound proteins were analyzed by SDS-PAGE followed by fluorography for binding assays using in vitro translated proteins. […] Bound proteins were then detected by standard chemiluminescence assay (ECL; Amersham; Piscataway N.J.).
Experiment [4] concerns the target B2. Briefly: GST pull-down, 35S in vitro translated protein, SDS-PAGE and fluorography.
Experiment [5] concerns the target T1, hTRAF 2 (complete open reading frame, …). The description is as above.
The target of experiment [6] is T2, hTRAF4 (complete open reading frame, in …). The description is as above.
In experiment [7] the target is T5, hTRAF5 (complete open reading frame, in vitro translated from pcDNA3-Flag-TRAF5) (human, UniProt O00463 1-557, 35S-methionine labelled).
T5 construct: mature; also called human TRAF 5; not shown: Flag tag of the pcDNA3-Flag vector
Described as above.

The target in experiment [8] is T3, full-length I-TRAF (in vitro translated). The description is as above.
The target in experiment [9] is B9. The description is as above.
Experiment [10] addresses B5. The experiment is described as above.

T4 sequence (Q93009 1-213): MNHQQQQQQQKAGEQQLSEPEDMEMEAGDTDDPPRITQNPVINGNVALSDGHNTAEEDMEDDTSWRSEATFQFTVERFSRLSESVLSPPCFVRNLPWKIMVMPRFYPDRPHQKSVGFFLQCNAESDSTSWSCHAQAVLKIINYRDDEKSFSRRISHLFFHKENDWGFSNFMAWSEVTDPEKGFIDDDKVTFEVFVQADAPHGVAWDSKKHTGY
T5 sequence (O00463 whole entry): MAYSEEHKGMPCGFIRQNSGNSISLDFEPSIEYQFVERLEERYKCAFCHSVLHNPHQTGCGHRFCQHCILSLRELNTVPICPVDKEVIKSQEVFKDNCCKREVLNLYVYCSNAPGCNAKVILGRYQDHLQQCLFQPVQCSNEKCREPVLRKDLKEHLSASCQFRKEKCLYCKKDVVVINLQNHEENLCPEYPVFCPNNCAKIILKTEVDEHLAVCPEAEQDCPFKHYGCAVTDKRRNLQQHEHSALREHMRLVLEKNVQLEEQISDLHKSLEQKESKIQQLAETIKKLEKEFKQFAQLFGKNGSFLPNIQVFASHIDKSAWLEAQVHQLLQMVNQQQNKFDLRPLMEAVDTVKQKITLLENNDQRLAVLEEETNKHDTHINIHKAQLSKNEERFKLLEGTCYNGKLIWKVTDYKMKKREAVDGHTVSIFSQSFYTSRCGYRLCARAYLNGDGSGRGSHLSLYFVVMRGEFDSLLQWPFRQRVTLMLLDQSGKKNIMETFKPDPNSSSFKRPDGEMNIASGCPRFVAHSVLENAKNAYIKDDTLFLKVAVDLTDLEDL

Take B1: the binding result in experiment [1] and in [2] was “no binding” each time.

For B2, the binding result in experiment [1] is “no binding”.

Consider B3, for which the binding result in experiment [1] and in experiment [2] was “no binding” throughout.

For the molecule B4, in experiment [3], the binding result is on record as “no binding”.

Take B5: the binding result in experiment [1] is “no binding”.

For the molecule B6, the binding result in experiment [1] is on record as “no binding”.

Regarding B7, the binding result in experiment [1] and in experiment [2] was “no binding” in each case.

B8: the binding result in experiment [4], in experiment [5], in experiment [6], in experiment [7], in experiment [8] and in [9] was “no binding” each time. Also, the binding result in [10] is “no binding”.

Consider B9, for which, in experiment [1], the binding result was “no binding”.
